Results: US20250215412A1 (NOVOZYMES A S, published 2025)

Legend:
Test in all cases: cell-based or functional assay
[1] = target: T1, Chryseobacterium sp-62563 deamidase S258E (Chryseobacterium sp-62563)
T1 chain: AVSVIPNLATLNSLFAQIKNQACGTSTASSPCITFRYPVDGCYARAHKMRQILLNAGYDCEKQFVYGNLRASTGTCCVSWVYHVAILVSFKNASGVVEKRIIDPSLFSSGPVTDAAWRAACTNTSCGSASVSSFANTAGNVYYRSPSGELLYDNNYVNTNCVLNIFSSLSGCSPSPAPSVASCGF

[2] = target: T2, Chryseobacterium sp-62563 deamidase V190Q (Chryseobacterium sp-62563)
T2 chain: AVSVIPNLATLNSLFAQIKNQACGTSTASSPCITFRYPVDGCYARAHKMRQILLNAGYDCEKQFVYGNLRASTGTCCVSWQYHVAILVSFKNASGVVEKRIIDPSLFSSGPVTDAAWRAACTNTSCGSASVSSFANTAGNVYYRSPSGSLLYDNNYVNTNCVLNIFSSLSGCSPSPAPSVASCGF

[3] = target: T3, Chryseobacterium sp-62563 deamidase V190P (Chryseobacterium sp-62563)
T3 chain: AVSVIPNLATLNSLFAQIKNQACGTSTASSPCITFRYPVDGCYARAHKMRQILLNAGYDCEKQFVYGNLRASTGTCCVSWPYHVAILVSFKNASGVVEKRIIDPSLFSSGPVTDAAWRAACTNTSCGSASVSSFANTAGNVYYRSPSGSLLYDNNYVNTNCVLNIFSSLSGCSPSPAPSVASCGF

[4] = target: T4, Chryseobacterium sp-62563 deamidase S256D (Chryseobacterium sp-62563)
T4 chain: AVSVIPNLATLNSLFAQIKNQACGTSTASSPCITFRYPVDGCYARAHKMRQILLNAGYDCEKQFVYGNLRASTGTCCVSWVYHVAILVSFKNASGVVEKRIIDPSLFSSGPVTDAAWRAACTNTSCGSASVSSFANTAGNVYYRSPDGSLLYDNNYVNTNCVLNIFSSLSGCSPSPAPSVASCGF

[5] = target: T5, Chryseobacterium sp-62563 deamidase V190D (Chryseobacterium sp-62563)
T5 chain: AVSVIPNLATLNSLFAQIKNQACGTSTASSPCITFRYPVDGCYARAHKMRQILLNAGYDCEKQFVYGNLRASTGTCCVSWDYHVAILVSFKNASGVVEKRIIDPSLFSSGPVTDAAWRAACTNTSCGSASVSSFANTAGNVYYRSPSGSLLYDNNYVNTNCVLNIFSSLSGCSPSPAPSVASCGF

[6] = target: T6, Chryseobacterium sp-62563 deamidase L259P (Chryseobacterium sp-62563)
T6 chain: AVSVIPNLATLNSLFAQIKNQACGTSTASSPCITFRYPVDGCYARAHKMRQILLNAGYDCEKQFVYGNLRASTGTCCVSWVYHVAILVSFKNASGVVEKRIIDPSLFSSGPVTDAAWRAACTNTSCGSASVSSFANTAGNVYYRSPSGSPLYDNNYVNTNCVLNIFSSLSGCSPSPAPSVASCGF

[7] = target: T7, Chryseobacterium sp-62563 deamidase L260E (Chryseobacterium sp-62563)
T7 chain: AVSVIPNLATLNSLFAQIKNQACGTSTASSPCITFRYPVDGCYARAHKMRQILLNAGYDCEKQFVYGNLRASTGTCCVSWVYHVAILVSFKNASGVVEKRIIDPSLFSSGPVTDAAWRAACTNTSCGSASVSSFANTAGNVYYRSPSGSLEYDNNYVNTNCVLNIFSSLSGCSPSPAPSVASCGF

[8] = target: T8, Chryseobacterium sp-62563 deamidase V190F (Chryseobacterium sp-62563)
T8 chain: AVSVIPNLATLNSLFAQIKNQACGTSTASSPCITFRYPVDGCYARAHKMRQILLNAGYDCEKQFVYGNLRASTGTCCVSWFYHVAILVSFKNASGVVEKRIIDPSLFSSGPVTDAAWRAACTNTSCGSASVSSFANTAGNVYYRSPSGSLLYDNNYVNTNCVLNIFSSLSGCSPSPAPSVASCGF

[9] = target: T9, Chryseobacterium sp-62563 deamidase P255D (Chryseobacterium sp-62563)
T9 chain: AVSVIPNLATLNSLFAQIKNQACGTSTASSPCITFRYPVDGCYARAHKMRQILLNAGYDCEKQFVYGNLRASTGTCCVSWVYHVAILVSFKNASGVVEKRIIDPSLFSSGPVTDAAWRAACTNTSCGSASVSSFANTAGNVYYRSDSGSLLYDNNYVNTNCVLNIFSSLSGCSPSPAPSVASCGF

[10] = target: T10, Chryseobacterium sp-62563 deamidase P285D (Chryseobacterium sp-62563)
T10 chain: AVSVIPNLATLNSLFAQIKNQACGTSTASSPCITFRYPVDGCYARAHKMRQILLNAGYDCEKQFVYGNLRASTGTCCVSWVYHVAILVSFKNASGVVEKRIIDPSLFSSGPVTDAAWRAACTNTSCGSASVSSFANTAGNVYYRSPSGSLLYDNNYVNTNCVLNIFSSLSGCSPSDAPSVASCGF

[11] = target: T11, Chryseobacterium sp-62563 deamidase T268I (Chryseobacterium sp-62563)
T11 chain: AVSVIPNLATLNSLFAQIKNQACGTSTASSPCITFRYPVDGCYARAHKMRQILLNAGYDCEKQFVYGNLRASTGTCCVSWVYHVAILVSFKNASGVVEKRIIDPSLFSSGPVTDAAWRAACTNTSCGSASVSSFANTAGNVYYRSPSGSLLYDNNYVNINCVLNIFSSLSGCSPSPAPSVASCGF

[12] = target: T1, Chryseobacterium sp-62563 deamidase …
[13] = target: T12, Chryseobacterium sp-62563 deamidase polypeptide (second polypeptide, deamidase domain), wildtype (Chryseobacterium sp-62563)
T12 chain: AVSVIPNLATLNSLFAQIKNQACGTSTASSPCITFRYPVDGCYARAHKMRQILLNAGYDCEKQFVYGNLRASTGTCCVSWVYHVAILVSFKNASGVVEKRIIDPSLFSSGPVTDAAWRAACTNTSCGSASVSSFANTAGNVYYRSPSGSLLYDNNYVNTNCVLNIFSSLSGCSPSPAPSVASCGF

B1: Chryseobacterium sp-62563 propeptide (first polypeptide, propeptide domain), wildtype (other)
chain: NQDPNLVAKESNETAMKDFGKTVPVGIEKEDGKFKISFMVTAQPYEIKDSKENAAYISMIKTAVENETPIHVFLKANTNEIAKVDKATDDDIRYFKSVFTKEVKEENRK
- NanoDSF thermal unfolding temperature [1]: 78.3 ° C.
- NanoDSF thermal unfolding temperature [2]: 75.8 ° C.
- NanoDSF thermal unfolding temperature [3]: 74.9 ° C.
- NanoDSF thermal unfolding temperature [4]: 81.5 ° C.
- NanoDSF thermal unfolding temperature [5]: 75.4 ° C.
- NanoDSF thermal unfolding temperature [6]: 80 ° C.
- NanoDSF thermal unfolding temperature [7]: 72.6 ° C.
- NanoDSF thermal unfolding temperature [8]: 78.2 ° C.
- NanoDSF thermal unfolding temperature [9]: 81.4 ° C.
- NanoDSF thermal unfolding temperature [10]: 65.8 ° C.
- NanoDSF thermal unfolding temperature [11]: 76.2 ° C.
- Relative activity of maturated deamidase [12]: ≥ 100 % initial rate
- Relative activity of maturated deamidase [13]: < 20 % initial rate
